Assay results reported in the supplement of paper PMC9876800.

Test system: peptide library, one residue held at a place counted from the S/T acceptor
Assay: relative phosphorylation of the sub-library (ratio to the mean residue at this position); human; higher = residue favoured
How it was run: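 Human or orthologue kinase constructs, purified and recombinant, were incubated under kinase-specific conditions in 384-well plates with biotinylated degenerate peptide sub-libraries. Each sub-library fixed one residue at one position around a central Ser/Thr. Incubations lasted 90 min with peptides at 50 μM and 50 μM ATP spiked with γ-32P-ATP, after which spots on streptavidin membranes were phosphorimaged and quantified by densitometry. Relative sub-library phosphorylation is a ratio to the mean residue at that position.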

Sequence of NEK11, construct: Full length (Q8NG66 whole entry, looked up): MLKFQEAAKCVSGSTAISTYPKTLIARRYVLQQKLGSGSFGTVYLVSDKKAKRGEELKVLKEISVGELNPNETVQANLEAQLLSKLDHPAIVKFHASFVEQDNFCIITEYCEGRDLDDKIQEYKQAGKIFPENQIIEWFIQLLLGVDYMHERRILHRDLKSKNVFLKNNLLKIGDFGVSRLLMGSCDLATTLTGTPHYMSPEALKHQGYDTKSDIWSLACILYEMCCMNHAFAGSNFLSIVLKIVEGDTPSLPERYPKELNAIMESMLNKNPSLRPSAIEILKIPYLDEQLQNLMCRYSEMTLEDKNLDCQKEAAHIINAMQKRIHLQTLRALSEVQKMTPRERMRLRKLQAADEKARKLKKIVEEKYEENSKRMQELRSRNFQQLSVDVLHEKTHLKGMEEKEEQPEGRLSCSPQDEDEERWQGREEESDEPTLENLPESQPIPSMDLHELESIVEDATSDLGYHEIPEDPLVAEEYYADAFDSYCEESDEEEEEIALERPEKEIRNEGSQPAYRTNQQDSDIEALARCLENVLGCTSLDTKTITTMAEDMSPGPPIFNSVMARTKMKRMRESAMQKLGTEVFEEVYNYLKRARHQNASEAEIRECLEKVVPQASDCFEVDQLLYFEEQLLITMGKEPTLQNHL
Sequence of NEK6, construct: Full length (Q9HC98 whole entry, looked up): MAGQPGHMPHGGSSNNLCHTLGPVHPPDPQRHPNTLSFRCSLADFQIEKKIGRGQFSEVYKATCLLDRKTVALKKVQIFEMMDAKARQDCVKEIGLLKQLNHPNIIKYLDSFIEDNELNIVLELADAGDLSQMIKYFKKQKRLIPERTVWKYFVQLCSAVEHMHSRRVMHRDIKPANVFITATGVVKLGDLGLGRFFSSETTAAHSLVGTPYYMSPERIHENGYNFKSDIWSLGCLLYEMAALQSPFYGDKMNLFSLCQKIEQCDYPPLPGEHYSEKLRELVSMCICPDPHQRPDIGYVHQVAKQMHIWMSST
Sequence of CDKL1, construct: aa2-304 (Q00532 2-304, looked up): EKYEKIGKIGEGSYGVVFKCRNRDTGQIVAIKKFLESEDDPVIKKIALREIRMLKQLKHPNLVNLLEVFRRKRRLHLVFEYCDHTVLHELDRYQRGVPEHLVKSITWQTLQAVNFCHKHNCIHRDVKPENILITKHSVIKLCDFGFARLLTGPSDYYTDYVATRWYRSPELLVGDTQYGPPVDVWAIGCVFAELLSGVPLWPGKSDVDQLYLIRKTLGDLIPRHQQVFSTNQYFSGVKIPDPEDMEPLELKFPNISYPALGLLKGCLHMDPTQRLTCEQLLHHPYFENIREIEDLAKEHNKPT

CDKL1, construct: aa2-304 (from UniProt Q00532)
relative phosphorylation
Details	at +1	at +2	at +3	at +4	at -1	at -2	at -3	at -4	at -5
A fixed	1.42	0.825	0.9	0.849	0.875	0.874	0.724	0.985	0.964
D fixed	0.679	0.924	0.793	0.858	0.693	0.715	0.534	0.874	0.771
E fixed	0.721	0.803	0.747	0.766	0.67	0.739	0.538	0.917	0.809
F fixed	0.888	0.829	0.924	0.916	0.835	0.724	0.531	0.934	1.21
G fixed	1.15	0.764	0.865	1.04	1.56	1.01	0.617	1.01	1
H fixed	1.02	1.22	1.13	1.07	1.02	0.727	0.593	0.926	0.987
I fixed	0.732	0.881	0.865	0.856	0.644	0.96	0.537	0.883	0.961
K fixed	1.25	1.52	1.43	1.31	1.61	0.898	0.852	1.22	1.08
L fixed	0.755	0.898	0.928	0.939	0.988	0.909	0.549	0.909	0.976
M fixed	0.862	0.841	0.9	0.953	1.19	0.774	0.549	0.937	0.96
N fixed	0.871	1.05	1	1.08	1.01	0.778	0.585	0.925	0.919
P fixed	1.92	0.774	0.978	0.98	1.02	3.55	0.704	1.05	0.918
Q fixed	0.894	1.03	1.05	1.07	1.05	0.856	0.707	1.08	0.972
R fixed	1.33	2.02	1.63	1.47	1.44	1.21	7.35	1.54	1.63
V fixed	0.744	0.888	0.944	0.83	0.736	0.873	0.54	0.967	0.896
W fixed	0.819	0.808	0.899	1.09	0.768	0.71	0.539	0.944	0.889
Y fixed	0.941	0.931	1.02	0.907	0.884	0.698	0.55	0.899	1.06
pThr fixed	0.811	0.892	0.844	0.824	0.778	0.799	0.576	0.837	0.737
pTyr fixed	0.652	0.663	0.733	0.692	0.717	0.75	0.786	0.876	0.726

NEK6, construct: Full length (from UniProt Q9HC98)
relative phosphorylation
Details	at +1	at +2	at +3	at +4	at -1	at -2	at -3	at -4	at -5
A fixed	0.844	1.17	0.962	0.822	1.21	1.16	1.04	1.26	1.16
D fixed	0.481	0.764	0.624	0.699	1.47	2.91	0.911	2.11	2.07
E fixed	0.344	0.325	0.564	0.578	1.96	1.89	0.611	1.18	1.15
F fixed	1.46	0.69	0.987	0.886	0.525	0.647	1.61	0.839	0.875
G fixed	1.02	1.27	1.69	1.26	0.75	1.75	1.06	1.13	1.36
H fixed	1.2	1.23	1.13	1.02	1.13	0.982	0.792	0.894	0.979
I fixed	0.646	0.568	0.537	0.616	0.434	0.425	0.495	0.531	0.632
K fixed	0.65	1.61	1.4	1.78	1.22	0.663	0.48	0.837	0.849
L fixed	0.886	0.443	0.767	0.593	0.72	0.612	2.04	0.735	0.747
M fixed	1.57	0.747	0.704	0.626	0.859	0.789	1.2	0.71	0.753
N fixed	1.2	1.87	1.24	0.917	1.38	1.6	0.869	1.29	1.16
P fixed	0.367	0.985	1.12	1.4	0.326	0.521	1.78	1.32	1.09
Q fixed	1.68	0.722	1.02	1.07	1.56	0.728	0.62	0.894	0.819
R fixed	0.986	2.23	1.4	1.4	1.51	0.663	0.463	0.869	0.685
V fixed	0.602	0.533	0.568	0.707	0.578	0.436	0.503	0.549	0.88
W fixed	1.5	0.87	1.38	1.36	0.619	0.577	1.25	1.1	1.04
Y fixed	1.56	0.989	0.901	1.27	0.744	0.65	1.27	0.75	0.767
pThr fixed	0.602	0.396	0.534	0.628	0.494	0.773	0.677	0.906	0.992
pTyr fixed	0.822	0.356	0.653	0.545	2.57	1.53	1.01	1.01	0.799

PRKCG, construct: Full length (from UniProt P05129)
relative phosphorylation
Details	at +1	at +2	at +3	at +4	at -1	at -2	at -3	at -4	at -5
A fixed	0.569	0.495	0.701	0.922	0.946	0.862	0.699	1.09	1.16
D fixed	0.22	0.261	0.452	0.666	0.538	0.455	0.412	0.62	0.676
E fixed	0.29	0.183	0.628	0.508	0.477	0.388	0.415	0.708	0.554
F fixed	1.46	0.545	0.842	0.662	0.479	0.72	0.771	0.818	1.21
G fixed	0.516	0.337	1.06	1.27	1.87	1.19	1.06	1.32	1.23
H fixed	0.686	1.26	1.23	1.32	0.972	1.12	1.3	1.28	1.23
I fixed	1.37	0.507	0.723	0.507	0.311	0.329	0.381	0.49	0.572
K fixed	1.92	4.06	2.11	2.56	1.87	2.01	2	1.55	1.71
L fixed	1.34	0.484	0.932	0.531	0.548	0.409	0.469	0.506	0.589
M fixed	1.56	0.599	0.738	0.586	0.741	0.606	0.652	0.767	0.572
N fixed	0.652	0.609	1.02	1.01	1.24	1.28	1.08	1.1	0.85
P fixed	0.333	0.334	0.516	1.36	1.16	1.16	1.12	1.09	0.937
Q fixed	1.15	0.688	0.856	1.09	1.08	1.21	0.934	1.05	0.887
R fixed	1.98	4.33	2.43	1.97	2.85	2.99	3.78	1.94	1.71
V fixed	1.15	0.48	0.608	0.563	0.497	0.418	0.496	0.639	0.723
W fixed	0.751	0.6	1.03	0.817	0.558	1	0.707	1.23	1.54
Y fixed	1.05	1.22	1.12	0.664	0.869	0.841	0.725	0.799	0.848
pThr fixed	0.973	0.563	0.673	0.486	0.484	0.746	0.805	0.947	0.683
pTyr fixed	0.794	0.916	0.911	0.498	0.875	0.842	0.973	0.86	0.8

NEK11, construct: Full length (from UniProt Q8NG66)
relative phosphorylation
Details	at +1	at +2	at +3	at +4	at -1	at -2	at -3	at -4	at -5
A fixed	0.432	0.613	0.845	0.834	0.977	1.38	1.06	0.887	1.02
D fixed	0.25	0.395	0.499	0.597	0.64	0.742	0.568	0.73	0.677
E fixed	0.234	0.349	0.53	0.606	0.59	0.579	0.643	0.659	0.709
F fixed	2.35	0.978	1.48	0.997	0.918	1.49	1.22	1.33	1.18
G fixed	0.494	0.664	0.797	0.876	1.57	1.28	1.01	1.2	1.36
H fixed	0.625	1.42	0.962	1.28	1.1	0.909	0.976	0.929	1.11
I fixed	2	0.549	0.797	0.497	0.491	0.542	0.671	0.724	0.866
K fixed	0.563	1.85	1.3	1.96	1.67	0.867	1.12	1.06	0.901
L fixed	1.86	0.787	1.25	0.805	0.914	0.975	1.12	0.945	0.763
M fixed	2.27	1.06	1.2	0.824	1.42	1.06	1.4	1.07	1.13
N fixed	0.573	1.06	1.05	1.11	1.23	1.42	1.18	1.08	1.03
P fixed	0.479	0.795	0.931	1	0.558	1.05	0.971	1.08	0.927
Q fixed	0.605	0.78	0.885	1.27	0.942	0.944	0.983	1.06	0.893
R fixed	0.494	1.93	0.864	1.02	1.53	0.991	1.2	1.12	1.23
V fixed	0.926	0.566	0.965	0.695	0.605	0.601	0.696	0.778	0.863
W fixed	1.23	1.02	1.43	1.42	0.764	1.1	0.979	1.31	1.21
Y fixed	1.62	2.17	1.21	1.21	1.08	1.06	1.21	1.03	1.13
pThr fixed	0.998	1.15	1.06	0.672	0.94	1.38	1.37	1.47	1.17
pTyr fixed	0.509	0.51	0.848	0.63	1.11	0.973	1.42	0.98	1.27
